Measured values reported in patent US6436654.
One block for each substance: values may come before it.

Columns and labels:
Assay in all cases: cell-based or functional assay
GAL4/HIF 1-826 (human) = target: GAL4/HIF 1-826 (human)
[1] = target: GFP-HIF-1α (Aequeora victoria; human) [GFP: P42212]
GAL4/HIF 776-826 (human) = target: GAL4/HIF 776-826 (human)
human HIF-1α (human) = human HIF-1α (human) (UniProt Q16665)
GAL4/HIF 526-826 (human) = target: GAL4/HIF 526-826 (human)
GAL4/HIF 71-826 (human) = target: GAL4/HIF 71-826 (human)
GAL4/HIF 531-584 (human) = target: GAL4/HIF 531-584 (human)
GAL4/HIF 1-813 (human) = target: GAL4/HIF 1-813 (human)
GAL4/Arnt 128-603 = GAL4/Arnt 128-603 (UniProt P04386)
GAL4/Arnt 128-774 = GAL4/Arnt 128-774 (UniProt P04386)

human HIF-1α (human), sequence (Q16665 whole entry, the tested form may be a part): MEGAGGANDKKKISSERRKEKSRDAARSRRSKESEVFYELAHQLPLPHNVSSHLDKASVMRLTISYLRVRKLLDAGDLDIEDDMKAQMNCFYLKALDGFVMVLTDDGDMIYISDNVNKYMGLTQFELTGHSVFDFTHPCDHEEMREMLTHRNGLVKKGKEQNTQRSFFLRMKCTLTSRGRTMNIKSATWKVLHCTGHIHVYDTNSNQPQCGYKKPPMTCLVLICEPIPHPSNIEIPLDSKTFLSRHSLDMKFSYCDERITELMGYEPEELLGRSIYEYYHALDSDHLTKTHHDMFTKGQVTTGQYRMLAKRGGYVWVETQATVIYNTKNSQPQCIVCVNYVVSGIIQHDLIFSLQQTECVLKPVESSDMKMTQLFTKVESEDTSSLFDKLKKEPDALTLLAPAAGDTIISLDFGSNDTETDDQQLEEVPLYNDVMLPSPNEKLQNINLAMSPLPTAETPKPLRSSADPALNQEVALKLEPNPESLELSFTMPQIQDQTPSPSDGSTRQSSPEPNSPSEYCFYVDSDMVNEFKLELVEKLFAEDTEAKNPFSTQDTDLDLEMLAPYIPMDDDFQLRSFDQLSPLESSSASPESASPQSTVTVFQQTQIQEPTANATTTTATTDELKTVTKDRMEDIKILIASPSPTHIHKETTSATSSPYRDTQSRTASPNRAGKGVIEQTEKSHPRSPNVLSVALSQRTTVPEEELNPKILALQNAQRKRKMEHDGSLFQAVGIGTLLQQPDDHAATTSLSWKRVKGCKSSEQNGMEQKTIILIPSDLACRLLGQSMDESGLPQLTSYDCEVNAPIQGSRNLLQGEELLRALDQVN

GAL4-responsive luciferase reporter gene activity in COS7 cells, hypoxia (GAL4/HIF 1-826 (human)): 19 fold | GAL4-responsive luciferase reporter gene activity in COS7 cells, normoxia (GAL4/HIF 1-826 (human)): 2 to 3 fold | GAL4-responsive reporter gene activity in COS7 cells, hypoxia (GAL4/HIF 1-826 (human)): 8 to 10 fold | HRE-luciferase reporter gene activity in COS7 cells, hypoxia [1]: 3 fold | HRE-luciferase reporter gene activity in COS7 cells, hypoxia over normoxia [1]: 15 fold | GAL4-responsive reporter gene activity in COS7 cells (GAL4/HIF 776-826 (human)): 29 fold | pT81/HRE-luc reporter gene activity in COS7 cells coexpressing HIF-1α and Arnt, hypoxia (human HIF-1α (human)): 2 to 3 fold | GAL4-responsive reporter gene activity in COS7 cells (GAL4/HIF 526-826 (human)): 7 to 9 fold | GAL4-responsive luciferase activity in COS7 cells, hypoxia, against hypoxia without exogenous coactivators (GAL4/HIF 71-826 (human)): 30 fold | GAL4-responsive reporter gene activity in COS7 cells, hypoxia (GAL4/HIF 531-584 (human)): 11 fold | GAL4-responsive reporter gene activity in COS7 cells, hypoxia (GAL4/HIF 1-813 (human)): 14 fold
Substance: CBP (full-length mouse CBP) (from UniProt P45481 1-2441)

GAL4-responsive reporter gene activity in COS7 cells, hypoxia, Ref-1 coexpressed with CBP and SRC-1 (GAL4/HIF 776-826 (human)): 53 fold | GAL4-responsive reporter gene activity in COS7 cells, hypoxia, Ref-1 coexpressed with CBP and SRC-1 (GAL4/HIF 531-584 (human)): 12 fold
Substance: Ref-1 (from UniProt P27695 1-318) (enzyme)

pT81/HRE-luc reporter gene activity in COS7 cells coexpressing HIF-1α and Arnt, hypoxia over normoxia (human HIF-1α (human)): 12 fold
Substance: TIF2 (from UniProt Q15596 1-1464)

GAL4-responsive reporter gene activity in COS7 cells, normoxia (GAL4/Arnt 128-603): 5 fold | GAL4-responsive reporter gene activity in COS7 cells, normoxia (GAL4/Arnt 128-774): 4 fold
Substance: human HIF-1α (from UniProt Q16665 1-826)
